The source of these data is patent US20140147444A1 (published 2014).

Where a chain is given by its changes, count along the chain named. Names may count otherwise. Where two headings read alike, the source gives them in different places.

Assay [1] concerns the target T1, human OPGbp [143-317] (human, UniProt O14788 143-317).
T1 construct: also called OPGL
T1 sequence (looked up): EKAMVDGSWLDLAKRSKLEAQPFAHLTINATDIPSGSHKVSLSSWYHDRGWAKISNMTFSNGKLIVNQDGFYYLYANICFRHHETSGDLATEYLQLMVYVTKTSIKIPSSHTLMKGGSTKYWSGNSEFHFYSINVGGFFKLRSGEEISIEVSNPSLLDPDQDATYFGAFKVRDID
Briefly: SPR (BIAcore), immobilized OPGbp [143-317]. Background: In SPR one partner is held on a chip, and binding of the other changes the refractive index at the surface.

For assay [2], the target named is T1, human OPGbp [143-317]. In words: SPR (BIAcore), immobilized OPGbp [143-317]. The source holds these as a separate data set.

For orientation: Kd means a measure of binding affinity in units of concentration. Read a low Kd as a tighter complex. As usually defined, the koff is the first-order rate constant of dissociation. Read a high koff as fast dissociation. In general, kon refers to the second-order rate constant of association. Low readings indicate slow association, high ones fast association.

B1: “AT” antibody variant N98D (heavy chain CDR3) (antibody, name in Kabat numbering, V domains shown)
VH: QVQLVQSGAEVRKPGASVKVSCKASGYDFSNYAIHWVRQAPGQRLEWMGWINAGNGNTKFSQKFQGRITVTRDTAASTAYMELRSLRSEDTAVYYCARDSSDMVRGIIIAYYFDYWGQGTLVTVSS
VL: EIVMTQSPSSLSASVGDRVTITCRASQSISRYLNWYQLKPGKAPRLLIYGASSLQSGVPSRFSGSGSGAEFTLTISSLQPEDIATYYCQHTRAFGQGTKVEIKR
notes: not shown: human IgG1 CH1, hinge, CH2 and CH3
As for B1, in the assay with human OPGbp [143-317] [1], binding was characterised by a dissociation constant (Kd) of 0.46 nM, the koff turned out to be 0.00312 s⁻¹ and the kon is 6.85e+06 M⁻¹ s⁻¹.

B2: “AT” antibody variant S96T (heavy chain CDR3) (antibody, name in Kabat numbering, V domains shown)
VH: B1 VH with S100T, D102N
VL: B1 VL
notes: as for B1
In the assay with human OPGbp [143-317] [2], B2 had a Kd of 0.53 nM, a dissociation rate constant (koff) of 0.00167 s⁻¹ and a kon of 3.14e+06 M⁻¹ s⁻¹.

B3: “AT” antibody variant S96H (heavy chain CDR3) (antibody, name in Kabat numbering, V domains shown)
VH: B1 VH with S100H, D102N
VL: B1 VL
notes: as for B1
Take B3: in the assay with human OPGbp [143-317] [2], binding was characterised by a dissociation constant (Kd) of 1.86 nM, the koff was determined as 0.00764 s⁻¹ and the kon was 4.12e+06 M⁻¹ s⁻¹.

B4: “AT” antibody variant S96K (heavy chain CDR3) (antibody, name in Kabat numbering, V domains shown)
VH: B1 VH with S100K, D102N
VL: B1 VL
notes: as for B1
Take B4: in the assay with human OPGbp [143-317] [2], the affinity, expressed as Kd, was 0.31 nM; the koff came out at 0.00141 s⁻¹; the kon came to 4.55e+06 M⁻¹ s⁻¹.

B5: “AT” antibody variant N98L (heavy chain CDR3) (antibody, name in Kabat numbering, V domains shown)
VH: B1 VH with D102L
VL: B1 VL
notes: as for B1
Consider B5, for which, in the assay with human OPGbp [143-317] [1], the Kd worked out at 0.82 nM, the koff amounted to 0.00122 s⁻¹ and the on-rate constant (kon) came out at 1.48e+06 M⁻¹ s⁻¹.

B6: “AT” antibody variant N98M (heavy chain CDR3) (antibody, name in Kabat numbering, V domains shown)
VH: B1 VH with D102M
VL: B1 VL
notes: as for B1
In the assay with human OPGbp [143-317] [1], B6 came in with a Kd of 27.5 nM, a koff of 0.0814 s⁻¹ and a kon of 2.96e+06 M⁻¹ s⁻¹.

B7: “AT” antibody variant S96D (heavy chain CDR3) (antibody, name in Kabat numbering, V domains shown)
VH: B1 VH with S100D, D102N
VL: B1 VL
notes: as for B1
Turning to B7, in the assay with human OPGbp [143-317] [2], the Kd came out at 0.51 nM, the koff amounted to 0.00118 s⁻¹ and the on-rate constant (kon) stood at 2.28e+06 M⁻¹ s⁻¹.

B8: “AT” antibody variant N98P (heavy chain CDR3) (antibody, name in Kabat numbering, V domains shown)
VH: B1 VH with D102P
VL: B1 VL
notes: as for B1
As to B8, in the assay with human OPGbp [143-317] [1], the Kd was 1.13 nM, the koff was found to be 0.00171 s⁻¹ and the on-rate constant (kon) stood at 1.51e+06 M⁻¹ s⁻¹.

B9: “AT” antibody variant S96G (heavy chain CDR3) (antibody, name in Kabat numbering, V domains shown)
VH: B1 VH with S100G, D102N
VL: B1 VL
notes: as for B1
B9: in the assay with human OPGbp [143-317] [2], the Kd was 3.85 nM, the koff came out at 0.015 s⁻¹ and the kon stood at 3.87e+06 M⁻¹ s⁻¹.

B10: “AT” antibody variant S96Q (heavy chain CDR3) (antibody, name in Kabat numbering, V domains shown)
VH: B1 VH with S100Q, D102N
VL: B1 VL
notes: as for B1
In the assay with human OPGbp [143-317] [2], B10 returned a Kd of 3.09 nM, a koff of 0.00359 s⁻¹ and a kon of 1.16e+06 M⁻¹ s⁻¹.

B11: “AT” antibody variant S96W (heavy chain CDR3) (antibody, name in Kabat numbering, V domains shown)
VH: B1 VH with S100W, D102N
VL: B1 VL
notes: as for B1
Take B11: in the assay with human OPGbp [143-317] [2], the dissociation constant (Kd) was determined as 1.26 nM, the koff is 0.00203 s⁻¹ and the association rate constant (kon) stood at 1.61e+06 M⁻¹ s⁻¹.

B12: “AT” antibody variant N98S (heavy chain CDR3) (antibody, name in Kabat numbering, V domains shown)
VH: B1 VH with D102S
VL: B1 VL
notes: as for B1
Regarding B12, in the assay with human OPGbp [143-317] [1], the Kd is 0.58 nM, the off-rate (koff) stood at 0.00154 s⁻¹ and the kon was found to be 2.67e+06 M⁻¹ s⁻¹.

B13: “AT” antibody variant N98H (heavy chain CDR3) (antibody, name in Kabat numbering, V domains shown)
VH: B1 VH with D102H
VL: B1 VL
notes: as for B1
For B13, in the assay with human OPGbp [143-317] [1], the affinity, expressed as Kd, was 1.06 nM; the koff is 0.00234 s⁻¹; the kon was found to be 2.2e+06 M⁻¹ s⁻¹.

B14: “AT” antibody variant S96N (heavy chain CDR3) (antibody, name in Kabat numbering, V domains shown)
VH: B1 VH with S100N, D102N
VL: B1 VL
notes: as for B1
In the assay with human OPGbp [143-317] [2], B14 yielded a Kd of 1.53 nM, a koff of 0.00215 s⁻¹ and an association rate constant (kon) of 1.4e+06 M⁻¹ s⁻¹.

B15: “AT” antibody variant S96L (heavy chain CDR3) (antibody, name in Kabat numbering, V domains shown)
VH: B1 VH with S100L, D102N
VL: B1 VL
notes: as for B1
In the assay with human OPGbp [143-317] [2], B15 showed a Kd of 0.3 nM, a koff of 0.00175 s⁻¹ and a kon of 5.84e+06 M⁻¹ s⁻¹.

B16: “AT” antibody variant S96R (heavy chain CDR3) (antibody, name in Kabat numbering, V domains shown)
VH: B1 VH with S100R, D102N
VL: B1 VL
notes: as for B1
In the assay with human OPGbp [143-317] [2], B16 yielded a Kd of 0.38 nM, a koff of 0.00262 s⁻¹ and an association rate constant (kon) of 6.97e+06 M⁻¹ s⁻¹.

B17: “AT” antibody variant S96M (heavy chain CDR3) (antibody, name in Kabat numbering, V domains shown)
VH: B1 VH with S100M, D102N
VL: B1 VL
notes: as for B1
In the assay with human OPGbp [143-317] [2], B17 gave a Kd of 2.43 nM, a koff of 0.0087 s⁻¹ and a kon of 3.57e+06 M⁻¹ s⁻¹.

B18: “AT” antibody variant N98Q (heavy chain CDR3) (antibody, name in Kabat numbering, V domains shown)
VH: B1 VH with D102Q
VL: B1 VL
notes: as for B1
In the assay with human OPGbp [143-317] [1], B18 showed a Kd of 0.81 nM, a koff of 0.00151 s⁻¹ and a kon of 1.86e+06 M⁻¹ s⁻¹.

B19: “AT” antibody variant S96Y (heavy chain CDR3) (antibody, name in Kabat numbering, V domains shown)
VH: B1 VH with S100Y, D102N
VL: B1 VL
notes: as for B1
In the assay with human OPGbp [143-317] [2], B19 gave a dissociation constant Kd of 0.67 nM, a koff of 0.00185 s⁻¹ and a kon of 2.75e+06 M⁻¹ s⁻¹.

B20: “AT” antibody variant N98F (heavy chain CDR3) (antibody, name in Kabat numbering, V domains shown)
VH: B1 VH with D102F
VL: B1 VL
notes: as for B1
In the assay with human OPGbp [143-317] [1], B20 came in with a Kd of 26600 nM, a koff of 0.099 s⁻¹ and a kon of 3700 M⁻¹ s⁻¹.

B21: “AT” antibody variant N98V (heavy chain CDR3) (antibody, name in Kabat numbering, V domains shown)
VH: B1 VH with D102V
VL: B1 VL
notes: as for B1
In the case of B21, in the assay with human OPGbp [143-317] [1], the Kd amounted to 0.43 nM, the koff came out at 0.000197 s⁻¹ and the kon is 456000 M⁻¹ s⁻¹.

B22: “AT” antibody variant S96P (heavy chain CDR3) (antibody, name in Kabat numbering, V domains shown)
VH: B1 VH with S100P, D102N
VL: B1 VL
notes: as for B1
Consider B22, for which, in the assay with human OPGbp [143-317] [2], binding was put at a Kd of 1.29 nM, the koff was found to be 0.00188 s⁻¹ and the kon was 1.45e+06 M⁻¹ s⁻¹.

B23: “AT” antibody variant N98R (heavy chain CDR3) (antibody, name in Kabat numbering, V domains shown)
VH: B1 VH with D102R
VL: B1 VL
notes: as for B1
In the assay with human OPGbp [143-317] [1], B23 yielded a Kd of 0.3 nM, a koff of 0.00108 s⁻¹ and a kon of 3.59e+06 M⁻¹ s⁻¹.

B24: “AT” antibody variant S96F (heavy chain CDR3) (antibody, name in Kabat numbering, V domains shown)
VH: B1 VH with S100F, D102N
VL: B1 VL
notes: as for B1
With B24, in the assay with human OPGbp [143-317] [2], the Kd came out at 8.45 nM, the koff came out at 0.00268 s⁻¹ and the kon was 317000 M⁻¹ s⁻¹.

B25: “AT” antibody variant S96I (heavy chain CDR3) (antibody, name in Kabat numbering, V domains shown)
VH: B1 VH with S100I, D102N
VL: B1 VL
notes: as for B1
On to B25, for which, in the assay with human OPGbp [143-317] [2], the Kd amounted to 1.56 nM, the koff was found to be 0.00466 s⁻¹ and the kon turned out to be 2.99e+06 M⁻¹ s⁻¹.

B26: “AT” antibody variant N98E (heavy chain CDR3) (antibody, name in Kabat numbering, V domains shown)
VH: B1 VH with D102E
VL: B1 VL
notes: as for B1
In the assay with human OPGbp [143-317] [1], B26 came in with a Kd of 1.32 nM, a dissociation rate constant (koff) of 0.00359 s⁻¹ and a kon of 2.72e+06 M⁻¹ s⁻¹.

B27: “AT” antibody variant N98G (heavy chain CDR3) (antibody, name in Kabat numbering, V domains shown)
VH: B1 VH with D102G
VL: B1 VL
notes: as for B1
In the assay with human OPGbp [143-317] [1], B27 displayed a Kd of 24.3 nM, a koff of 0.00559 s⁻¹ and a kon of 230000 M⁻¹ s⁻¹.

B28: “AT” antibody variant S96V (heavy chain CDR3) (antibody, name in Kabat numbering, V domains shown)
VH: B1 VH with S100V, D102N
VL: B1 VL
notes: as for B1
In the assay with human OPGbp [143-317] [2], B28 displayed a dissociation constant (Kd) of 2.25 nM, a koff of 0.0121 s⁻¹ and a kon of 5.37e+06 M⁻¹ s⁻¹.

B29: “AT” antibody variant N98K (heavy chain CDR3) (antibody, name in Kabat numbering, V domains shown)
VH: B1 VH with D102K
VL: B1 VL
notes: as for B1
With B29, in the assay with human OPGbp [143-317] [1], the binding result is reported as “no binding”.

B30: “AT” antibody variant N98W (heavy chain CDR3) (antibody, name in Kabat numbering, V domains shown)
VH: B1 VH with D102W
VL: B1 VL
notes: as for B1
Consider B30, for which, in the assay with human OPGbp [143-317] [1], binding was characterised by a dissociation constant (Kd) of 2.93 nM, the koff was determined as 0.00768 s⁻¹ and the kon turned out to be 2.62e+06 M⁻¹ s⁻¹.

B31: “AT” antibody variant N98I (heavy chain CDR3) (antibody, name in Kabat numbering, V domains shown)
VH: B1 VH with D102I
VL: B1 VL
notes: as for B1
Turning to B31, in the assay with human OPGbp [143-317] [1], binding was put at a Kd of 7.6 nM, the koff turned out to be 0.00436 s⁻¹ and the kon was 568000 M⁻¹ s⁻¹.

B32: “AT” antibody variant S96E (heavy chain CDR3) (antibody, name in Kabat numbering, V domains shown)
VH: B1 VH with S100E, D102N
VL: B1 VL
notes: as for B1
In the assay with human OPGbp [143-317] [2], B32 had a Kd of 0.35 nM, a koff of 0.000901 s⁻¹ and a kon of 2.54e+06 M⁻¹ s⁻¹.
